Reference: patent US20240369535A1, “METHODS AND MATERIALS FOR DETERMINING pGC TARGET DOSAGE” (Mayo Foundation for Medical Education and Research, priority 2021, published 2024)

What was measured:
[1] = molecular target: T1, human GC-A (Homo sapiens, UniProt P16066); assay: Ex vivo MCUF-651 therapeutic potency assay with human plasma (Example 2), HEK293 overexpressing human GC-A; type: cell-based
T1 construct: expressed in transfected cells
T1 sequence (P16066 33-1061): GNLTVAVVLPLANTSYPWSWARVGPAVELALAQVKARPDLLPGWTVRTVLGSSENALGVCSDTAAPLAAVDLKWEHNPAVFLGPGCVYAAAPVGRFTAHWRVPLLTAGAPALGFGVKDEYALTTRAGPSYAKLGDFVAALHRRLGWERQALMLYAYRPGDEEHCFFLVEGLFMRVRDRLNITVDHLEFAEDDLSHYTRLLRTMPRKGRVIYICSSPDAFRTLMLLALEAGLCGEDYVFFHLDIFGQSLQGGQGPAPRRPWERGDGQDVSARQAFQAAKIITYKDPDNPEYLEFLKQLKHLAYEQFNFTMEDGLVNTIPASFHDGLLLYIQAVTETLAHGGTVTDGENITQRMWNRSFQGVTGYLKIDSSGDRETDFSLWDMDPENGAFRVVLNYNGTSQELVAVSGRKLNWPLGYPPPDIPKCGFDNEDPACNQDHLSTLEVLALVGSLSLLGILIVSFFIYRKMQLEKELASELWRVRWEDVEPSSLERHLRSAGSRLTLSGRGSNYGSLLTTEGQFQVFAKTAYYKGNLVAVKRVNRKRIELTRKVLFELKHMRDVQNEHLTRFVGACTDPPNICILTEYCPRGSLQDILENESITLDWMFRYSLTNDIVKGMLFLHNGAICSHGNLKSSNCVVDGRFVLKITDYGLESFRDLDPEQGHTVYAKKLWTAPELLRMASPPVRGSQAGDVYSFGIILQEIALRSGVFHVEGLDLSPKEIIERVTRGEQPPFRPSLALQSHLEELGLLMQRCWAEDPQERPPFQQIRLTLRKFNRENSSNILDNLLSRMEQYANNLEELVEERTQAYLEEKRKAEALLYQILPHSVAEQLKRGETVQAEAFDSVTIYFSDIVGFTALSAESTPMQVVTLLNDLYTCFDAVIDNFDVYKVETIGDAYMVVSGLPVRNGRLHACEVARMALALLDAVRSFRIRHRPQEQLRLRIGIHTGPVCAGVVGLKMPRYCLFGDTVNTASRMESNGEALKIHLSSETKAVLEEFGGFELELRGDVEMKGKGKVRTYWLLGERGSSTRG
Procedure: Ex Vivo MCUF-651 Therapeutic Potency Assay with Human Plasma from Normal Subjects and Patients with Hypertension and Heart Failure: Stored human plasma samples from normal subjects and patients with HT and HF were utilized. The details of the recruitment of these participants were as described elsewhere (Reginauld et al., supra; and Ferrario et al., Hypertension 77:882-890, 2021). […] HEK293 overexpressing human GC-A were cultured and grown as described above. Cells were grown in 48-well plates to 80-90% confluence. On the day of the experiment, cells were pre-incubated with MCUF-651 at doses of 1, 5, or 10 μM or with vehicle (Veh) in 250 μL treatment buffer (as described above) for 5 minutes at 37° C. 25 μL of human plasma was then added and incubated for additional 10 minutes. Cells were then washed with PBS once and lysed with 0.1 M HCl, and intracellular cGMP levels were measured in the lysate using a commercial cGMP ELISA kit (Enzo Life Sciences, Farmingdale, NY) as instructed by the manufacturer.

[2] = molecular target: T2, human pGC-A (Homo sapiens, UniProt P16066); assay: MCUF-651/NP/pGC-A/cGMP potency assay (Example 5), HEK293 cells overexpressing human pGC-A; type: cell-based; details: for cGMP potency: particularly at 5 and 10 μM
T2 construct: expressed in transfected cells
T2 sequence (P16066 33-1061): T1 sequence (P16066 33-1061)
Procedure: (§1) In vitro Cell Culture: HEK 293 cells were stably transfected with human pGC-A or pGC-B using LIPOFECTAMINE™ (Invitrogen, Grand Island, NY) (Chen et al. 2020, supra). Transfected cells (HEK/GC-A or (HEK/GC-B) were maintained in DMEM supplemented with 10% FBS and 250 μg/ml G418. Cells in 48-well plates were grown to 80-90% confluency and then incubated in Hanks Balanced Salt Solution (HBSS, Invitrogen) containing 20 mM HEPES, 0.1% BSA, and 0.5 mM 3-isobutyl-1-methylxanthine (IBMX, Sigma).
MCUF-651/NP/pGC-A/cGMP Potency Assay: Human plasma samples from patients with HT (N=6), ADHF (N=6), and CKD (N=5) were utilized. The details of the recruitment of participants are described above. Stably transfected HEK293 cells engineered to overexpress human pGC-A were cultured (as described above) and grown in 48-well plates to 80-90% confluence. On the day of the experiment, human plasma was diluted 10× with HBSS. 250 μl of diluted plasma was added together with vehicle (DSMO) or the MCUF-651 small molecule pGC-A positive allosteric modulator at doses of 1, 5, or 10 μM to the HEK/pGC-A cells and incubated for 10 minutes at 37° C. Cells were then washed with PBS once and lysed with 0.1 M HCl, and intracellular cGMP levels were measured in the lysate using a commercial cGMP ELISA kit (Enzo Life Sciences, Farmingdale, NY) as instructed by the manufacturer.

[3] = molecular target: T1, human GC-A; assay: NP/GC-A/cGMP potency assay (Example 1): cGMP production in HEK293 cells overexpressing human GC-A; type: cell-based
Procedure: Transfected cells (HEK/GCA) were maintained in Dulbecco Modified Eagle medium (DMEM) supplemented with 10% FBS, and 250 μg/ml G418. Cells in 48-well plates were grown to 80-90% confluency and then incubated in Hanks Balanced Salt Solution (HBSS, Invitrogen) containing 20 mM HEPES, 0.1% BSA and 0.5 mM 3-isobutyl-1-methylxanthine (IBMX, Sigma).
A stable transfected cell line of HEK293 cells engineered to overexpress human GC-A was grown in 48-well plates to 80-90% confluency. […] Studies were repeated with human plasma with or without addition of the designer GC-A activator, MANP, at doses of 10^−10 M and 10^−8 M.

[4] = molecular target: T3, human pGC-B (Homo sapiens, UniProt P20594); assay: NP/pGC-B/cGMP potency assay (Example 5), HEK293 cells overexpressing human pGC-B; type: cell-based; details: ADHF plasma
T3 construct: expressed in transfected cells
T3 sequence (P20594 23-1047): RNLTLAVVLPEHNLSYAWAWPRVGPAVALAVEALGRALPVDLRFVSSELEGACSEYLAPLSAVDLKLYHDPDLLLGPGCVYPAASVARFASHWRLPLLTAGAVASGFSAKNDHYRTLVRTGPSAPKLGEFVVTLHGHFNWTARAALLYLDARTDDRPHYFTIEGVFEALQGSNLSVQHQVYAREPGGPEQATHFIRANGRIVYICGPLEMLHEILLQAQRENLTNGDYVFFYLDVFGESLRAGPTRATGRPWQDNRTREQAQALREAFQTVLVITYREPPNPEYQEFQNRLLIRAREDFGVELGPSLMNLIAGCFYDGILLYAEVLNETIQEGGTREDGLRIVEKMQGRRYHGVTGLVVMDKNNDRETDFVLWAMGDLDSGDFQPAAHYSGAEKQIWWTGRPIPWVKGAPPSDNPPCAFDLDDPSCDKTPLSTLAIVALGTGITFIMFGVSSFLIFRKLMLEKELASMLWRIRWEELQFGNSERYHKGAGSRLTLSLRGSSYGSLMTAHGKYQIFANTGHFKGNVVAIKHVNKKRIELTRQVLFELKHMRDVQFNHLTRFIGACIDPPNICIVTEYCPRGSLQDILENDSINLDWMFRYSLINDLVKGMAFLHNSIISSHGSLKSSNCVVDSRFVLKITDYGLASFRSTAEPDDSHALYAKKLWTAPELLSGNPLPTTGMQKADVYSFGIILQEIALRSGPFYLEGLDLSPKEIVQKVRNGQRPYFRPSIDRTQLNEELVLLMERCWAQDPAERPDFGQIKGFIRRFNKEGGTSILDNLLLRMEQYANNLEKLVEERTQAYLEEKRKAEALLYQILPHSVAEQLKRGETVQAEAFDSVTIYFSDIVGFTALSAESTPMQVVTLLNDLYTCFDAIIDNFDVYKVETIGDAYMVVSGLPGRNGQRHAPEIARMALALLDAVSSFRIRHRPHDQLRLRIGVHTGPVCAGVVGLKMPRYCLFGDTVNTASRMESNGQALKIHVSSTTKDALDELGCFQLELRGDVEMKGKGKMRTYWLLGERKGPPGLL
Procedure: as §1
NP/pGC-B/cGMP Potency Assay: Human plasma samples from patients with ADHF (N=6) were utilized. Stably transfected HEK293 cells engineered to overexpress human pGC-B were cultured (as described above) and grown in 48-well plates to 80-90% confluence. On the day of the experiment, human plasma was diluted 10× with HBSS. Diluted plasma (250 μl) was added together with vehicle (PBS), native CNP (an endogenous pGC-B activator), C53 (a designer CNP analog/pGC-B activator) or CRRL-408 (a designer dual pGC-A and pGC-B activator) at doses of 10^−10, 10^−8, or 10^−7 M to the HEK/GC-B cells and incubated for 10 minutes at 37° C. Afterwards, cells were washed once with PBS and lysed with 0.1M HCl. cGMP was then assayed using an ELISA (Enzo Life Sciences) as described elsewhere (Chen et al. 2018, supra).

[5] = molecular target: human pGC-A receptor (human) (UniProt P16066); assay: cell-based or functional assay
[6] = molecular target: T2, human pGC-A; assay: NP/pGC-A/cGMP potency assay (Example 5), HEK293 cells overexpressing human pGC-A; type: cell-based
Procedure: as §1
NP/pGC-A/cGMP Potency Assay: Human plasma samples from patients with HT (N=6), ADHF (N=6), and CKD (N=5) were utilized. Stably transfected HEK293 cells engineered to overexpress human pGC-A were cultured (as described above) and were grown in 48-well plates to 80-90% confluence. On the day of the experiment, human plasma was diluted 10× with HBSS. […] Afterwards, the cells were washed once with PBS and lysed with 0.1M HCl. cGMP was then assayed using an ELISA (Enzo Life Sciences) as described elsewhere (Chen et al. 2018, supra).

With `CN(C)CCN1CCCC(C(=O)Nc2nc3c(F)cc(F)cc3s2)C1` (stereo not drawn) [MCUF-651] the “generation of cGMP levels” value ([1]; 1, 5 or 10 μM, plasma from normal subjects, hypertensive and HF patients (all three cohorts)) was “potentiated”, the “cGMP potency compared between cohorts” value ([1]; HF plasma, highest circulating ANP and BNP) was “greatest cGMP potency” and the cGMP potency ([2]; ADHF plasma with higher circulating ANP and BNP) was “higher cGMP potency”. The cGMP potency ([2]; ADHF plasma with lower circulating ANP and BNP) was “lower cGMP potency”, the cGMP levels ([2]; ADHF plasma, dose 1 μM) was “modestly potentiated” and the cGMP levels ([2]; ADHF plasma, dose 5 μM) was “markedly potentiated”. The cGMP levels ([2]; ADHF plasma, dose 10 μM) was “markedly potentiated”, the cGMP levels ([2]; CKD plasma, dose 1 μM) was “no response” and the cGMP levels ([2]; CKD plasma, dose 5 μM) was “minimally potentiated”. The cGMP levels ([2]; CKD plasma, dose 10 μM) was “minimally potentiated”, the cGMP levels ([2]; HT plasma, dose 1 μM) was “modestly potentiated” and the cGMP levels ([2]; HT plasma, dose 5 μM) was “markedly potentiated”. For the same compound, the cGMP levels ([2]; HT plasma, dose 10 μM) was “markedly potentiated”.

With “B-type natriuretic peptide [BNP, reference compound]” the “mean cGMP level” value ([3]; synthetic peptide alone, concentrations corresponding to ADHF deficient ANP and BNP plasma (ANP 16.8, BNP 47.4 pg/mL), 10 min) was 6.9 ± 0.9 pmol/mL, the “mean cGMP level” value ([3]; synthetic peptide alone, concentrations corresponding to ADHF elevated ANP and BNP plasma (ANP 350, BNP 1225.7 pg/mL), 10 min) was 80.3 ± 16.9 pmol/mL and the “mean cGMP level” value ([3]; synthetic peptide alone, concentrations mimicking healthy subject plasma (ANP 25.5, BNP 27 pg/mL), 10 min) was 4.7 ± 0.4 pmol/mL.

For “C53: designer pGC-B activator, 53 amino acid intermediate form of CNP (SEQ ID NO:5) (DLRVDTKSRAAWARLLQEHPNARKYKGANKKGLSKGCFGLKLDRIGSMSGLGC)”, the cGMP levels ([4]; dose 10^-8 M) was “markedly potentiated” and the cGMP levels ([4]; dose 10^-10 M (in a single patient)) was “modestly potentiated”.

With “C-type natriuretic peptide [CNP, reference compound]” the cGMP levels ([4]; dose 10^-8 M) was “markedly potentiated”.

In the case of “MANP (designer pGC-A activator) (peptide)”, the cGMP in HEK293 cells overexpressing human GC-A; plasma of ADHF patients with elevated ANP and BNP plus 10^-8 M MANP [5] is reported as 201 pmol/mL and the cGMP in HEK293 cells overexpressing human GC-A; plasma of ADHF patients with elevated ANP and BNP plus 10^-10 M MANP [5] is reported as 60.4 pmol/mL.

“MANP: designer pGC-A activator, polypeptide SLRRSSCFGGRMDRIGAQSGLGCNSFRYRITAREDKQGWA (SEQ ID NO:1)” was tested, and the cGMP levels ([6]; ADHF plasma, dose 10^-8 M) was “markedly potentiated”, the cGMP levels ([6]; ADHF plasma, dose 10^-10 M) was “modestly potentiated” and the cGMP levels ([6]; CKD plasma, dose 10^-8 M) was “markedly potentiated”. The cGMP levels ([6]; CKD plasma, dose 10^-10 M) was “modestly potentiated”, the cGMP levels ([6]; HT plasma, dose 10^-8 M) was “markedly potentiated” and the cGMP levels ([6]; HT plasma, dose 10^-10 M) was “modestly potentiated”. For the same compound, the “mean cGMP level” value ([3]; healthy plasma + 10^-8 M MANP) was 167 ± 14.1 pmol/mL, the “mean cGMP level” value ([3]; healthy plasma + 10^-10 M MANP) was 45 ± 5.5 pmol/mL and the “mean cGMP level” value ([3]; plasma of deficient ANP and BNP ADHF patients + 10^-8 M MANP) was 166.9 ± 9.1 pmol/mL. For the same compound, the “mean cGMP level” value ([3]; plasma of deficient ANP and BNP ADHF patients + 10^-10 M MANP) was 33.8 ± 1.4 pmol/mL, the “mean cGMP level” value ([3]; plasma of elevated ANP and BNP ADHF patients + 10^-8 M MANP) was 200.8 ± 5.4 pmol/mL and the “mean cGMP level” value ([3]; plasma of elevated ANP and BNP ADHF patients + 10^-10 M MANP) was 60.4 ± 9.7 pmol/mL.

Work on “synthetic human BNP (from UniProt P16860 103-134) (ligand)” yielded a cGMP in HEK293 cells overexpressing human GC-A; synthetic BNP at the level of ADHF plasma with elevated ANP and BNP (1225.7 pg/mL) [5] of 80.3 pmol/mL, a mean cGMP in HEK293 cells overexpressing human GC-A; synthetic BNP at 27 pg/mL (level of healthy plasma) [5] of 4.7 pmol/mL and a mean cGMP in HEK293 cells overexpressing human GC-A; synthetic BNP at the level of ANP and BNP deficient ADHF plasma (47.4 pg/mL) [5] of 6.9 pmol/mL.
